Data taken from PMC7847548, “Functional Characterization of the γ-Aminobutyric Acid Transporter from Mycobacterium smegmatis MC^2 155 Reveals Sodium-Driven GABA Transport” (Journal of Bacteriology, 2020).

Target: the molecule itself
Assay: SEC-MALS; SEC-MALLS, three-detector method; Superose 6 column in 20 mM HEPES pH 7.0, 100 mM NaCl, 5% glycerol, 0.0102% DMNPG; 30 ul of MsGabP at 3 mg/ml injected; protein-detergent complex

B1: γ-aminobutyric acid (GABA) permease GabP from Mycobacterium smegmatis MC^2 155 (natural protein, UniProt A0R5H8 1-473, looked up)
chain: MLESRSDLSSSDEPRSGLARSLKTRHMTMIAIGGAIGAGLFVGSGAVIKTAGPAAIVSYVVAGALVLCTLRMLGEMVVAKPRTGAFADYARIGIGPWAGFTLGWLYWYYYVIIIAVEAVAGAQILAVWVGLPLWLMAMLLMAALTLTNLISVRWFGEFEFWFSGIKVAAIVSFIVVGLLWVFGVWPGDTNGLTNLVAHGGFAPNGFGSIFGAVVVVIFAFGGAEIVTIAAAESAEPAKSVARATTGVIWRIILFYVGSIFLVVCILPWNDASVLSSPYVAALEKLQIPGAGLIMNIVILTAVLSVLNSSIYTSSRMLRVLASHGDAPQWLVRTNTRGVPTRAILASTVVGWVSVVLAYIAPDSLFLFLVNSCGVVAIFMYVMIGVSELRVRRAIEREDPAKLTLKMWFFPYLPIAVIACFVLVLVAMLFDADQRVQLLASVVSLAVVLLAYALRKRHGQVPATDTKQAARTDE
notes: GABA permease GabP, Mycobacterium smegmatis MC^2 155, gene msmeg_6196, amplified from genomic DNA and cloned NheI/SbfI into pL33 (based on pTTQ18); predicted molecular mass 50.7 kDa; pL33 encodes a C-terminal His tag preceded by an HRV-3C protease site; the tag was cleaved on the column, so residues of the cleavage site and of the cloning sites may remain; also called MsGabP; gene product of …
stoichiometry N: 2
